Measured values: the RNAGym collection of RNA variant scans (doi:10.7554/elife.90254)

B1: LINE1-mini (parent)
chain: GGCAGAGCUCAACACAGCGUGGCAAAGUGGCUGUGGCUAGACUGCC

Variants of: B1
Test: self-cleavage, relative activity (ratio to wild type); higher = more cleavage; in vitro, sequencing; the parent is a self-cleaving ribozyme

Variant	self-cleavage
GGCAGAGCUCAACACAGCGUGGUAACGUGGCUGUGGCUAGACUGCC [C23U A26C]	0.64
GGCAGAGCUCAACACAGCGUGGUAAGGUGGCUGUGGCUAGACUGCC [C23U A26G]	0.88
GGCAGAGCUCAACACAGCGUGGUAAUGUGGCUGUGGCUAGACUGCC [C23U A26U]	0.99
GGCAGAGCUCAACACAGCGUGGUAAAGAGGCUGUGGCUAGACUGCC [C23U U28A]	0.82
GGCAGAGCUCAACACAGCGUGGUAAAGGGGCUGUGGCUAGACUGCC [C23U U28G]	0.6
GGCAGAGCUCAACACAGCGUGGUAAAGCGGCUGUGGCUAGACUGCC [C23U U28C]	1.37
GGCAGAGCUCAACACAGCGUGGUAAAGUGGCUGUGGCAAGACUGCC [C23U U38A]	0.47
GGCAGAGCUCAACACAGCGUGGUAAAGUGGCUGUGGCCAGACUGCC [C23U U38C]	0.93
GGCAGAGCUCAACACAGCGUGGUAAAGUGGCUGUGGCGAGACUGCC [C23U U38G]	0.04
GGCAGAGCUCAACACAGCGUGGUAAAGUGGCGGUGGCUAGACUGCC [C23U U32G]	0.36
GGCAGAGCUCAACACAGCGUGGUAAAGUGGCCGUGGCUAGACUGCC [C23U U32C]	0.61
GGCAGAGCUCAACACAGCGUGGUAAAGUGGCAGUGGCUAGACUGCC [C23U U32A]	0.2
GGCAGAGCUCAACACAGCGUGGUAAAGUGGCUGUGGCUAGAUUGCC [C23U C42U]	0.91
GGCAGAGCUCAACACAGCGUGGUAAAGUGGCUGUGGCUAGAAUGCC [C23U C42A]	0.25
GGCAGAGCUCAACACAGCGUGGUAAAGUGGCUGUGGCUAGAGUGCC [C23U C42G]	0.09
GGCAGAGCUCAACACAGCGUGGUAAAAUGGCUGUGGCUAGACUGCC [C23U G27A]	1.07
GGCAGAGCUCAACACAGCGUGGUAAACUGGCUGUGGCUAGACUGCC [C23U G27C]	0.73
GGCAGAGCUCAACACAGCGUGGUAAAUUGGCUGUGGCUAGACUGCC [C23U G27U]	0.87
GGCAGAGCUCAACACAGCGUGGCCAAGUCGCUGUGGCUAGACUGCC [A24C G29C]	0.54

Variant	self-cleavage
GGCAGAGCUCAACACAGCGUGGCCAAGUUGCUGUGGCUAGACUGCC [A24C G29U]	0.87
GGCAGAGCUCAACACAGCGUGGCCAAGUAGCUGUGGCUAGACUGCC [A24C G29A]	1.02
GGCAGAGCUCAACACAGCGUGGCCAAGUGGAUGUGGCUAGACUGCC [A24C C31A]	0.06
GGCAGAGCUCAACACAGCGUGGCCAAGUGGGUGUGGCUAGACUGCC [A24C C31G]	0.03
GGCAGAGCUCAACACAGCGUGGCCAAGUGGUUGUGGCUAGACUGCC [A24C C31U]	0.12
GGCAGAGCUCAACACAGCGUGGCCAAGUGGCUGUGGCUGGACUGCC [A24C A39G]	0.07
GGCAGAGCUCAACACAGCGUGGCCAAGUGGCUGUGGCUCGACUGCC [A24C A39C]	1.1
GGCAGAGCUCAACACAGCGUGGCCAAGUGGCUGUGGCUUGACUGCC [A24C A39U]	0.25
GGCAGAGCUCAACACAGCGUGGCCAAGUGGCUGUCGCUAGACUGCC [A24C G35C]	0.06
GGCAGAGCUCAACACAGCGUGGCCAAGUGGCUGUAGCUAGACUGCC [A24C G35A]	0.09
GGCAGAGCUCAACACAGCGUGGCCAAGUGGCUGUUGCUAGACUGCC [A24C G35U]	0.05
GGCAGAGCUCAACACAGCGUGGCCAAGUGGCUAUGGCUAGACUGCC [A24C G33A]	0.06
GGCAGAGCUCAACACAGCGUGGCCAAGUGGCUCUGGCUAGACUGCC [A24C G33C]	0.04
GGCAGAGCUCAACACAGCGUGGCCAAGUGGCUUUGGCUAGACUGCC [A24C G33U]	0.04
GGCAGAGCUCAACACAGCGUGGUAAAGUGGCUGUGGCUAGACUGCA [C23U C46A]	1.4
GGCAGAGCUCAACACAGCGUGGUAAAGUGGCUGUGGCUAGACUGCU [C23U C46U]	1.39
GGCAGAGCUCAACACAGCGUGGUAAAGUGGCUGUGGCUAGACUGCG [C23U C46G]	1.58
GGCAGAGCUCAACACAGCGUGGCCAACUGGCUGUGGCUAGACUGCC [A24C G27C]	0.77
GGCAGAGCUCAACACAGCGUGGCCAAUUGGCUGUGGCUAGACUGCC [A24C G27U]	0.55

Variant	self-cleavage
GGCAGAGCUCAACACAGCGUGGCCAAAUGGCUGUGGCUAGACUGCC [A24C G27A]	0.77
GGCAGAGCUCAACACAGCGUGGUAAAGUGGAUGUGGCUAGACUGCC [C23U C31A]	0.24
GGCAGAGCUCAACACAGCGUGGUAAAGUGGGUGUGGCUAGACUGCC [C23U C31G]	0.16
GGCAGAGCUCAACACAGCGUGGUAAAGUGGUUGUGGCUAGACUGCC [C23U C31U]	0.47
GGCAGAGCUCAACACAGCGUGGCCAAGUGGCUGUGGCUAGACUGGC [A24C C45G]	0.16
GGCAGAGCUCAACACAGCGUGGCCAAGUGGCUGUGGCUAGACUGAC [A24C C45A]	0.16
GGCAGAGCUCAACACAGCGUGGCCAAGUGGCUGUGGCUAGACUGUC [A24C C45U]	0.7
GGCAGAGCUCAACACAGCGUGGUAAAGUGGCUGUGGCUAGACGGCC [C23U U43G]	0.03
GGCAGAGCUCAACACAGCGUGGUAAAGUGGCUGUGGCUAGACAGCC [C23U U43A]	0.07
GGCAGAGCUCAACACAGCGUGGUAAAGUGGCUGUGGCUAGACCGCC [C23U U43C]	0.43
GGCAGAGCUCAACACAGCGUGGUAAAGUGGCUAUGGCUAGACUGCC [C23U G33A]	0.15
GGCAGAGCUCAACACAGCGUGGUAAAGUGGCUUUGGCUAGACUGCC [C23U G33U]	0.16
GGCAGAGCUCAACACAGCGUGGUAAAGUGGCUCUGGCUAGACUGCC [C23U G33C]	0.05
GGCAGAGCUCAACACAGCGUGGUAAAGUGGCUGUUGCUAGACUGCC [C23U G35U]	0.16
GGCAGAGCUCAACACAGCGUGGUAAAGUGGCUGUCGCUAGACUGCC [C23U G35C]	0.1
GGCAGAGCUCAACACAGCGUGGUAAAGUGGCUGUAGCUAGACUGCC [C23U G35A]	0.19
GGCAGAGCUCAACACAGCGUGGCCAGGUGGCUGUGGCUAGACUGCC [A24C A26G]	0.33
GGCAGAGCUCAACACAGCGUGGCCACGUGGCUGUGGCUAGACUGCC [A24C A26C]	0.28
